Test results published in PMC2873509, “The RNA binding protein HuR does not interact directly with HIV-1 reverse transcriptase and does not affect reverse transcription in vitro”.

Assays:
NusA-HuR [1] = biological target: T1, NusA-HuR (UniProt Q15717 1-326); experiment: EMSA; 0-3 uM HuR, 100 nM RNA; EMSA: 50 mM Tris pH 7.5, 50 mM KCl, 37 C, 1 h, 100 nM 32P-RNA; 7% native PAGE in 40 mM Tris-acetate pH 8.0, 1 mM EDTA, room temperature; details: protein: recombinant; tags: N-terminal NusA fusion, TEV site ENLYFQS; Ni-NTA purified; label: 32P
NusA-HuR [2] = biological target: T1, NusA-HuR; experiment: EMSA; EMSA: 50 mM Tris pH 7.5, 50 mM KCl, 37 C, 1 h, 100 nM 32P-RNA; 7% native PAGE in 40 mM Tris-acetate pH 8.0, 1 mM EDTA, room temperature; details: protein: recombinant; tags: N-terminal NusA fusion, TEV site ENLYFQS; Ni-NTA purified; label: 32P; RNA template with annealed primer

T1 sequence (Q15717 whole entry, the tested form may be a part): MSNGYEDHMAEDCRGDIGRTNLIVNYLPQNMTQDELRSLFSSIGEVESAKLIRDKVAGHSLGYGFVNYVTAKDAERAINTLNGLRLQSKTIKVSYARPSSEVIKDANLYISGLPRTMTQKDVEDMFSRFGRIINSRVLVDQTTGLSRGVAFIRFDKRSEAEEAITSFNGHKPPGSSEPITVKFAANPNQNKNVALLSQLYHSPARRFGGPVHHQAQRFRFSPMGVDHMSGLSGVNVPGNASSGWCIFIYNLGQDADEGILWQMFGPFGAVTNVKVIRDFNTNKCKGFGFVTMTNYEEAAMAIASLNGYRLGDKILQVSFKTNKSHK

Row | Binder | binding result (NusA-HuR [1]) | binding result (NusA-HuR [2])
1 | UCAGAUAUUUAUAUUUUUAUUUUAUUUUUUUCUACCUUGAGGUCUUUUGA (ssRNA) [ARE-containing synthetic ssRNA (Fig. 2C)] | binds | 
2 | ARE-containing template/primer (Fig. 4B) (mixed) RNA: UCAGAUAUUUAUAUUUUUAUUUUAUUUUUUUCUACCUUGAGGUCUUUUGA DNA: CACTAGTCAAAAGACCTC |  | binds
